Results taken from patent US20200353078A1 (AstraZeneca / MedImmune, published 2020).

How the values were obtained:
Human IL-33 Flag®His [1] = biological target: T1, Human IL-33 Flag®His (human); assay: cell-based or functional assay
T1 chain: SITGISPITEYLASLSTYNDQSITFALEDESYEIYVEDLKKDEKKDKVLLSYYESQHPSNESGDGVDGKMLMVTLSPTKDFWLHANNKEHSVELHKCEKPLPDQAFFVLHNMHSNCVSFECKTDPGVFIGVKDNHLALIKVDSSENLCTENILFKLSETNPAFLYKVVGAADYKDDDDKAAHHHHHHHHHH

Human IL-33 Flag®His [2] = biological target: T1, Human IL-33 Flag®His; assay: HTRF competition, IgG titrated against biotinylated human ST2-Fc
Experimental: (§1) The ability of anti-IL-33 antibodies to inhibit the binding of FLAG®-His tagged IL-33 to the ST2 receptor was assessed in a biochemical HTRF® (Homogeneous Time-Resolved Fluorescence, Cisbio International) competition assay, the principles of which are described above.
(§2) Activity of purified IgG preparations were determined by competing a dilution series of the purified IgG against biotinylated human or mouse ST2.Fc for binding to FLAG® His-tagged human, cynomolgus or mouse IL-33.
(§3) Purified or unpurified anti-IL-33 antibody samples were tested for inhibition of FLAG®-His tagged IL-33 binding ST2-Fc by adding 10 microlitres of each dilution of antibody test sample to a 384 well low volume assay plate (Costar 3676). Next, a solution containing 4 nM biotinylated human or mouse ST2-Fc and 20 nM streptavidin XL665 detection (Cisbio International, 611SAXLB) was prepared and 5 microlitres of the mix added to the assay plate. This was followed by the addition of 5 microlitres of a solution containing 1.2 nM FLAG®-His tagged human, cynomolgus or mouse IL-33 combined with 1.72 nM anti-FLAG® cryptate detection (Cisbio International, 61FG2KLB). All dilutions were performed in assay buffer comprised of Dulbeccos PBS (Invitrogen, 14190185) containing 0.8 M potassium fluoride (BDH 103444T) and 0.1% BSA (Sigma A9576). Assay plates were incubated for 2 hour at room temperature followed by 16 hour at 4° C. before reading time resolved fluorescence at 620 nm and 665 nm emission wavelengths using an EnVision plate reader (Perkin Elmer).

[3] = biological target: T2, Cynomolgus IL-33 Flag®His (cynomolgus monkey); assay: as above
T2 construct: C-terminal FLAG 10xHis tag, E. coli; also called Mature Cynomolugus IL-33; cyno IL-33 FH
T2 chain: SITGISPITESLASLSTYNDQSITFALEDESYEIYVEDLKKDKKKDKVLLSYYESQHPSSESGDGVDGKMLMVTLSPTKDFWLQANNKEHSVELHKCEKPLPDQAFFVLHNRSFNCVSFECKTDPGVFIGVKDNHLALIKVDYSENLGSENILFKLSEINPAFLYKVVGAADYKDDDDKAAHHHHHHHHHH
Experimental: as §1, §2, §3

Human IL-33 Flag®His [4] = biological target: T1, Human IL-33 Flag®His; assay: SPR BIAcore 2000, IgG captured on Protein G', IL-33 as analyte, 1:1 Langmuir
Experimental: (§4) The binding affinity of purified IgG samples of exemplary binding members to human and cynomolgus IL-33 was determined by surface plasmon resonance using BIAcore 2000 biosensor (BIAcore AB) essentially as described by Karlsson et al., J Immunol Methods 145(1-2):229-40 (1991). In brief, Protein G′ (Sigma Aldrich, P4689) was covalently coupled to the surface of a CM5 sensor chip using standard amine coupling reagents according to manufacturer's instructions (BIAcore). The protein G′ surface was used to capture purified anti-IL-33 antibodies via the Fc domain to provide a surface density of approximately 290 RU per cycle. Human or cynomolgus IL-33 prepared in HBS-EP buffer (BIAcore AB), at a range of concentrations, between 600 nM and 18.75 nM, were passed over the sensor chip surface. The surface was regenerated using two 10 mM Glycine washes of pH 1.7 and pH 1.5 between each injection of antibody. The resulting sensorgrams were evaluated using BIA evaluation 3.1 software and fitted to a 1:1 Langmuir binding model, to provide relative binding data. The binding results (KD, Ka, and Kd) for antibodies IL330002 and IL330004 binding to human or cynomolgus IL-33 are shown in Table 8.

[5] = biological target: T2, Cynomolgus IL-33 Flag®His; assay: as above
Experimental: as §4

33_640237-2B IgG1 = biological target: T3, 33_640237-2B IgG1; assay: HTRF: unlabelled test protein competes with biotinylated human IL33-01 for DyLight650 labelled 33_640237-2B IgG
T3 construct: IgG1
Experimental: Human, cyno and mouse IL-33 FLAG® His (described in Example 1 and Table 21), Human IL-1 alpha and IL-1 beta (R&D Systems) (Table 21) or rat IL-33 (GenScript) were tested for inhibition of human IL-33 binding to DyLight650 labelled 33_640087-7B or DyLight650 labelled 33_640237-2B by adding 5 microlitres of each dilution of sample to a 384 well low volume assay plate (Costar, 3673). […] This was followed by the addition of 2.5 microlitres of a solution containing 0.12 nM biotinylated human IL-33-01 combined with 0.75 nM streptavidin cryptate detection (Cisbio International, 610SAKLB). All dilutions were performed in assay buffer containing 0.8 M potassium fluoride (VWR, 26820.236) and 0.1% bovine serum albumin (BSA, PAA, K05-013) in Dulbeccos PBS (Invitrogen, 14190185). Assay plates were incubated for 4 hours at room temperature followed by 18 hours at 4 degrees Celsius and time resolved fluorescence was read at 620 nm and 665 nm emission wavelengths using an EnVision plate reader (Perkin Elmer). Data were analysed by calculating the 665/620 nm ratio followed by the % Delta F values for each sample. The 665/620 nm ratio was used to correct for sample interference using Equation 1. The % Delta F for each sample was then calculated using Equation 2. The negative control (non-specific binding) was defined by replacing biotinylated human IL-33 combined with streptavidin cryptate detection with streptavidin cryptate detection only. The % Delta F values were subsequently used to calculate % specific binding as described in Equation 3. IC₅₀ values were determined using GraphPad Prism software by curve fitting using a four-parameter logistic equation (Equation 4).

Human ST2 ECD-Flag-his10 = biological target: T4, Human ST2 ECD-Flag-his10 (human, UniProt Q01638 19-328); assay: SPR Biacore T100, 25 C, biotinylated human IL-33 on streptavidin C1 chip, ST2-Flag-His10 as analyte
T4 construct: also called Human ST2 Flag His; FLAG® His-tagged human ST2
T4 sequence: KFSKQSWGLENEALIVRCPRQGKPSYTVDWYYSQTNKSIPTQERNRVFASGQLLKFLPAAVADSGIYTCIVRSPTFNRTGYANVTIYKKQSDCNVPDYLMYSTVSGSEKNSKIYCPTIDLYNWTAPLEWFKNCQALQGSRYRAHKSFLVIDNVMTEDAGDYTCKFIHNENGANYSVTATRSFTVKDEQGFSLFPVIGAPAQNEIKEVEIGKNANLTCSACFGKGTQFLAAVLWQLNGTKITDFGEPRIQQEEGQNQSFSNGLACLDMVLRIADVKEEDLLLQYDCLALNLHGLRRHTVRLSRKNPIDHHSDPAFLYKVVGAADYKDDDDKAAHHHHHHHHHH
Experimental: Fab fragments were generated by papain cleavage from full length IgG1 and purified by SEC. […] Streptavidin was covalently immobilised to a C1 chip surface using standard amine coupling techniques at a concentration of […] in 10 mM Sodium acetate pH 4.5. […] Recombinant, enzymatically biotinylated human IL-33 (produced in-house) was titrated onto the streptavidin chip surface at […] in HBS-EP+ buffer to enable ˜30 RUs of Fab binding at saturation (Rmax). This low level of analyte binding ensured minimal mass transport effects.
The IL-33 Fab was serially diluted from 5 nM to 78 pM in HBS-EP+ buffer and flowed over the chip at 50 μl/min, with 3 minutes association and up to 30 minutes dissociation. Multiple buffer only injections were made under the same conditions to allow for double reference subtraction of the final sensorgram sets, which were analysed using the BiaEval software (version 2.0.1). The chip surface was fully regenerated with pulses of 3M MgCl₂.
The affinity of ST2-Flag-His10 (SEQ. ID no. 650) expressed in HEK-EBNA cells for human IL-33 was determined by BIACORE™ using the same methods described above.

[6] = biological target: T5, Human IL-33 (Axxora/Adipogen AG-40B-0038) (human, UniProt O95760 112-270, limits assumed); assay: cell-based or functional assay
T5 sequence (looked up): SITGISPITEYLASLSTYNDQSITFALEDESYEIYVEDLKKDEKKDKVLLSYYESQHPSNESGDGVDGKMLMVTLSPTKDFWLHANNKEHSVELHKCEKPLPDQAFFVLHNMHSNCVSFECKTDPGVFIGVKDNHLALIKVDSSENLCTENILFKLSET

[7] = biological target: T5, Human IL-33 (Axxora/Adipogen …); assay: cell-based or functional assay; remark: listed apart in the source
[8] = biological target: T5, Human IL-33 (Axxora/Adipogen …); assay: HTRF epitope competition: unlabelled IgG against DyLight labelled H338L293 for biotinylated human IL-33

| Binder | IC50, human ST2 transfected HeLa NFkB luciferase reporter assay (Human IL-33 Flag®His [1]) [nM] | IC50 (Human IL-33 Flag®His [2]) [nM] | IC50 [3] [nM] | Huvec IL-6 production, maximum inhibition [6] [%] | Mast cell IL-6 production, inhibition [6] [%] | IC50 (read off the curve) [8] [nM] | further results |
| --- | --- | --- | --- | --- | --- | --- | --- |
| IL330002 IgG1 (antibody, V domains shown, Human IgG1, lambda constant) VH: not shown VL: SYELTQPPSLSVSPGQTASITCSGDKLGDKYVSWYQQKPGQSPILVIYHDNKRPSGIPERFSGSNSGNTATLTISGTQAMDEADYYCQAWDSNAGYVFGTGTKVTVL | 226 | 27 | 42 | – | – | – | Kd (Human IL-33 Flag®His [4]): 35 nM; koff (Human IL-33 Flag®His [4]): 0.00218 s⁻¹; kon (Human IL-33 Flag®His [4]): 61600 M⁻¹ s⁻¹; Kd [5]: 189 nM; koff [5]: 0.00442 s⁻¹; kon [5]: 23400 M⁻¹ s⁻¹ |
| IL330071 IgG1 (antibody, V domains shown, Human IgG1, lambda constant) VH: EVQLVESGAEVKQPGASVKVSCKASGYTFTSYGISWVRQAPGQGLEWMGWISAYNGNTNYAQKLQGRVTMTTDTSTSTAYMELRSLRSDDTAVYYCARRGFYHDAFDIWGRGTTVTVSS VL: AIQLTQSPSSLSASVGDRVTITCRASQGISNYLAWYQQKPGKVPKLLIYAASTLQSGVPSRFSGSGSGTEFTLTISSLQPDDFATYYCQQYNSYSVTFGQGTKVEIK | 226 | 59 | 375 | – | – | – | – |
| Mouse IL-33 Flag®His (ligand, C-terminal FLAG 10xHis tag, E. coli; also called Mature Mouse IL-33_FH; mouse IL-33 FH) SIQGTSLLTQSPASLSTYNDQSVSFVLENGCYVINVDDSGKDQEQDQVLLRYYESPCPASQSGDGVDGKKLMVNMSPIKDTDIWLHANDKDYSVELQRGDVSPPEQAFFVLHKKSSDFVSFECKNLPGTYIGVKDNQLALVEEKDESCNNIMFKLSKINPAFLYKVVGAADYKDDDDKAAHHHHHHHHHH | – | – | – | – | – | – | binding result (33_640237-2B IgG1): no binding (tested: about 10^-5.5 M) |
| Recombinant human IL-33 (construct not named in the example) (ligand, UniProt O95760 112-270, looked up, also called Recombinant, enzymatically biotinylated human IL-33 (produced in-house); IL-33 (200 nM)) SITGISPITEYLASLSTYNDQSITFALEDESYEIYVEDLKKDEKKDKVLLSYYESQHPSNESGDGVDGKMLMVTLSPTKDFWLHANNKEHSVELHKCEKPLPDQAFFVLHNMHSNCVSFECKTDPGVFIGVKDNHLALIKVDSSENLCTENILFKLSET | – | – | – | – | – | – | Kd (Human ST2 ECD-Flag-his10): 0.0029 nM; koff (Human ST2 ECD-Flag-his10): 4.35e-05 s⁻¹; kon (Human ST2 ECD-Flag-his10): 1.52e+07 M⁻¹ s⁻¹ |
| H338L293 IgG1 (as in Table 13) (antibody, V domains shown, IgG1) VH: EVQLLESGGGLVQPGGSLRLSCAASGFTFSSYAMSWVRQAPGKGLEWVSAISPREGWQYYADSVKGRFTISRDNSKNTLYLQMNSLRAEDTAVYYCVRVVAGYFDSWGRGTLVTVSS VL: SYVLTQPPSVSVSPGQTARITCSGDALPKQYAHWYQQKPGQAPALVIYKDTERPSGIPERFSGSSSGTTVTLTISGVQAEDEADYYCMSSDPSGASRVFGGGTKVTVL | – | – | – | ~70 | 100 | ~1 | IC50, Huvec IL-6 production [7]: 1.9 nM; IC50, Mast cell IL-6 production [7]: 1.7 nM |
| IL330396 IgG1 (antibody, V domains shown, IgG1; also called IL3300396) VH: EVQLLESGGGLVQPGGSLRLSCAASGFTFSSYAMSWVRQAPGKGLEWVSASTPWQGSTYYADSVKGRFTISRDNSKNTLYLQMNSLRAEDTAVYYCVRWYWGWIDSWGRGTLVTVSS VL: SYVLTQPPSVSVSPGQTARITCSGDALPKQYAHWYQQKPGQAPALVIYKDTERPSGIPERFSGSSSGTTVTLTISGVQAEDEADYYCMSSDDTGASRVFGGGTKVTVL | – | – | – | ~70 | 100 | ~1 | – |
